Values quoted from earlier work, collected in publication PMC9659328.

Target: thrombin (Homo sapiens) (UniProt P00734)

Question: Which Kd does the source give for thrombomodulin (from UniProt P07204) here?
Answer: The Kd was 2 nM.
